Residue numbers refer to the chain shown, from its start. Blank lines part the entries; values can stand above or below the binder they belong to.
Tests used:
[1] = target: PD-L1 on CHO cell line highly expressing PD-L1 (PD-1/PD-L1 blockade bioassay kit, promega J1250) (UniProt Q9NZQ7 19-290, limits assumed); assay: cell-based or functional assay
M1 = assay: ELISA on coated antigen, column M1
Description: (§1) An antigen PD-L1 wild type (WT) or several mutants were coated at a density of 100 ng/well on a 96-well immunoplate at 4° C. for 16 hours and the wells were blocked with 4% skim milk dissolved in PBS. Each well was washed with 0.2 ml of PBS/T, and then a single clone scFv-phage (each […]) cultured for 16 hours was added in a dose of 100 μl to each well and reacted at room temperature for 2 hours. Again, each well was washed 4 times with 0.2 ml of PBS/T, and then the second antibody, anti-Fab, was diluted to 1/2000 and reacted at room temperature for 1 hour. After washing with 0.2 ml of PBS/T, color development was performed and absorbance was measured at 490 nm.

M2 = assay: ELISA on coated antigen, column M2
Description: as §1

M3 = assay: ELISA on coated antigen, column M3
M4 = assay: ELISA on coated antigen, column M4
Description: as §1

M5 = assay: ELISA on coated antigen, column M5
Description: as §1

M6 = assay: ELISA on coated antigen, column M6
Description: as §1

M7 = assay: ELISA on coated antigen, column M7
M8 = assay: ELISA on coated antigen, column M8
Description: as §1

WT = target: T1, WT (human, UniProt Q9NZQ7); assay: ELISA on coated antigen, column WT
T1 construct: recombinant; also called hPD-L1; antigen PD-L1 wild type (WT)
Description: as §1

ITGA6 = target: T2, ITGA6; assay: ELISA on coated antigen, column ITGA6
T2 construct: unrelated antigen column; all antibodies give 0.5 to 0.6
T2 sequence (P23229 whole entry, species assumed, looked up): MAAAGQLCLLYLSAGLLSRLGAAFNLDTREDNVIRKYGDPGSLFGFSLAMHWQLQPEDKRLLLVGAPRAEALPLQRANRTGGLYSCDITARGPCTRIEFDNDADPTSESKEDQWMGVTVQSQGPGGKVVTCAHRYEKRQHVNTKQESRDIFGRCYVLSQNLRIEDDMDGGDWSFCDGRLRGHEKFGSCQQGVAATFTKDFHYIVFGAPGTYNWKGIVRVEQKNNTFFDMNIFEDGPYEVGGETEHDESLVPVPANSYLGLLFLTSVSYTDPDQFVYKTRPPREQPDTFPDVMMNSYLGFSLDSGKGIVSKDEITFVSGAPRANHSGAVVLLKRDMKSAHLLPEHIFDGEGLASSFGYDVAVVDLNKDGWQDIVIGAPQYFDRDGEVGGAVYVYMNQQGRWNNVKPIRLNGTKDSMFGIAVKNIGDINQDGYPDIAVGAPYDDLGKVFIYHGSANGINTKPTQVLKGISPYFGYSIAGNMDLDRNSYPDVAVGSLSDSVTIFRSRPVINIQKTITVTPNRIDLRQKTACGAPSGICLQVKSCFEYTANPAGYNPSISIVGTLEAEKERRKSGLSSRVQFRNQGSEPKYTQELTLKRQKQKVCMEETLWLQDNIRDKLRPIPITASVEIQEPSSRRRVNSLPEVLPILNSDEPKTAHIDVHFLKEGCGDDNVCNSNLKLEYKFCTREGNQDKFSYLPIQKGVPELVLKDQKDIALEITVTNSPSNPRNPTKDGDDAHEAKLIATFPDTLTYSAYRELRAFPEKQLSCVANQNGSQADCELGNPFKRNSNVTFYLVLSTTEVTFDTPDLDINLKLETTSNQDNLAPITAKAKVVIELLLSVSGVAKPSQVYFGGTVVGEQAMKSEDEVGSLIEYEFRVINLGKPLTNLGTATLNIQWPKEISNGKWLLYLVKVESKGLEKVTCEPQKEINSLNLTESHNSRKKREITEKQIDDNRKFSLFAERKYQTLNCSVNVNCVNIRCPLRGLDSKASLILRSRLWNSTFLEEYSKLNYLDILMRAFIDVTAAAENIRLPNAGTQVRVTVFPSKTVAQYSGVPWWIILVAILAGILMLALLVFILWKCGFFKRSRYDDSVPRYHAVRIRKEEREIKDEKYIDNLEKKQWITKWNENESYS

mouse PD-L1 protein = mouse PD-L1 protein (mouse, UniProt Q9EP73 19-238, limits assumed); assay: ELISA on coated antigen, column mPD-L1
Description: as §1

PD-L1-His = target: T3, PD-L1-His (human, UniProt Q9NZQ7); assay: competition ELISA: PD-L1-His pre-incubated with the antibody, then on coated PD-1-Fc (blocked ligand); % of max absorbance
T3 construct: recombinant, His-tagged; also called human PD-L1-His (S1479, Y-Biologics)
T3 sequence (Q9NZQ7 19-238 limits assumed): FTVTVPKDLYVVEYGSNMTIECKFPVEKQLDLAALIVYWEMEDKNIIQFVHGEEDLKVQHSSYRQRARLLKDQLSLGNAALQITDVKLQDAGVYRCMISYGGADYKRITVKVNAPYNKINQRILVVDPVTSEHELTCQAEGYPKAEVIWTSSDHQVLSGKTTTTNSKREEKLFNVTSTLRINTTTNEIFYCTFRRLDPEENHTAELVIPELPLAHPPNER

Sequence of mouse PD-L1 protein (Q9EP73 19-238 limits assumed): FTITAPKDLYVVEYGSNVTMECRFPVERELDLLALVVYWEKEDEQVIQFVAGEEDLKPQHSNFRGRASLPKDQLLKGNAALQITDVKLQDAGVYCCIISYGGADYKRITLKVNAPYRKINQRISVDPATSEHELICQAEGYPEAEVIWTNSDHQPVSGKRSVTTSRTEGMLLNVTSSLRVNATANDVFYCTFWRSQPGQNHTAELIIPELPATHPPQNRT
Sequence of PD-L1 on CHO cell line highly expressing PD-L1 (PD-1/PD-L1 blockade bioassay kit, promega J1250) (Q9NZQ7 19-290 limits assumed): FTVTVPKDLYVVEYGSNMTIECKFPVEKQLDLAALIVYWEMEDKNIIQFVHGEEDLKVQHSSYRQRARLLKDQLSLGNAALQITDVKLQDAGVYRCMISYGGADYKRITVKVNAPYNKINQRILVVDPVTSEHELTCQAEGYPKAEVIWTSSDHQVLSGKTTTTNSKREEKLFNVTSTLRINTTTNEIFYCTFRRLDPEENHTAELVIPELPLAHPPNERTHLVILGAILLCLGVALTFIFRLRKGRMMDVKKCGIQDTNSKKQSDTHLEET
T1 sequence (Q9NZQ7 19-238 limits assumed): as the sequence (Q9NZQ7 19-238 limits assumed) above

- Average *EC50 [nM], PD-1/PD-L1 blockade bioassay [1]: 1.1 nM
- absorbance at 490 nm (M1): 2.6
- absorbance at 490 nm (M2): 2.5
- absorbance at 490 nm (M3): 0.9
- absorbance at 490 nm (M4): 0.4
- absorbance at 490 nm (M5): 2.9
- absorbance at 490 nm (M6): 2.9
- absorbance at 490 nm (M7): 3
- absorbance at 490 nm (M8): 2
- absorbance at 490 nm (WT): 2.9
- absorbance at 490 nm (ITGA6): 0.5
- absorbance at 490 nm (mouse PD-L1 protein): 0.1
- binding result (mouse PD-L1 protein): no binding
B2: PDL1-27F8 (antibody, V domains shown)
VH: QVQLVQSGAEVKKPGSSVKVSCKASGGTFSSSAFSWVRQAPGHGLEWMGRIIPMFDMTDYAQRFQGRLTIIADESSSTAYMELSSLRSEDTAVYYCARSNPHYMDVWGQGTTVTVSS
VL: QLVLTQPPSVSGAPGQRVTISCTGSNSDIGAGHDVHWYQQIPGTAPKVLIYGNTDRPSGVPDRFSGSKSGTSASLAITGLQAEDEADYYCQSYDSSLSGYVFGTGTKVTVL
notes: Only FR/CDR pieces are tied to the clone

- absorbance at 490 nm (M1): 1.6
- absorbance at 490 nm (M2): 1.7
- absorbance at 490 nm (M3): 2.5
- absorbance at 490 nm (M4): 1.8
- absorbance at 490 nm (M5): 1.8
- absorbance at 490 nm (M6): 1.9
- absorbance at 490 nm (M7): 1.9
- absorbance at 490 nm (M8): 1.8
- absorbance at 490 nm (WT): 2.5
- absorbance at 490 nm (ITGA6): 0.5
- absorbance at 490 nm (mouse PD-L1 protein): 0.1
- binding result (mouse PD-L1 protein): no binding
B4: PDL1-31D9 (antibody, V domains shown)
VH: QMQLVESGGGLVQPGGSLRLSCSASGFTFSSYVMHWVRQAPGKGLEYVSAISSNGGSTYYADSVKGRFTISRDNSKNTLYLQMSSLRSEDTAVYYCAREHFSTYSYGVDVWGPGTTVTVSS
VL: DIVMTQTPLSLPVTPGEPASISCRSSQSLLDSDDGNTYLDWYLQKPGQSPQLLIYMISFRASGVPDRFSGSGSGTDFTLKISRVEAEDSGIYYCMQRVEFPYTFGQGTKLEIK
notes: as for B2

- absorbance at 490 nm (M1): 2.1
- absorbance at 490 nm (M2): 1.8
- absorbance at 490 nm (M3): 1
- absorbance at 490 nm (M4): 2.4
- absorbance at 490 nm (M5): 2.7
- absorbance at 490 nm (M6): 2.5
- absorbance at 490 nm (M7): 2.5
- absorbance at 490 nm (M8): 1.9
- absorbance at 490 nm (WT): 2.2
- absorbance at 490 nm (ITGA6): 0.5
- absorbance at 490 nm (mouse PD-L1 protein): 1.3
B5: PDL1-31E6 (antibody, V domains shown)
VH: QVQLVQSGAEVKKPGSSVKVSCKASGGTFSSYAISWVRQAPGQGLEWMGGIIPIFGTANYAQKFQGRVTITADESTSTAYMELSSLRSEDTAVYYCARGGRSFGAFDSWGQGALVTVSS
VL: DIQMTQSPATLSLSPGERATLSCTASQSISSYLAWYQQKPGQAPRLLIYDSSNRATGIPARFSGSGSGTAFTLTISSLEPEDFAVYFCQQRGQWPLTFGGGTKVDIK
notes: as for B2

- Average *EC50 [nM], PD-1/PD-L1 blockade bioassay [1]: 1.74 nM
- absorbance at 490 nm (M1): 2.8
- absorbance at 490 nm (M2): 2.7
- absorbance at 490 nm (M3): 1.1
- absorbance at 490 nm (M4): 0.7
- absorbance at 490 nm (M5): 2.9
- absorbance at 490 nm (M6): 2.9
- absorbance at 490 nm (M7): 3
- absorbance at 490 nm (M8): 3
- absorbance at 490 nm (WT): 2.5
- absorbance at 490 nm (ITGA6): 0.5
- absorbance at 490 nm (mouse PD-L1 protein): 1.8
B7: PDL1-31B7 (antibody, V domains shown)
VH: QVQLVESGAEVKKPGSSVKVSCKASGGTFSSYAISWVRQAPGQGLEWMGRIIPILGIANYAQKFQGRVTITADKSTSTAYMELSSLRSEDTAVYYCARASSGYSVGAFDIWGQGTMVTVSS
VL: QLVLTQPPSVSAPPGQKVTISCSGSSSNIGNNYVSWYQQLPGTAPKLLIYDNNERPSGIPDRFSASKSGTSATLGISGLQTGDEADYYCGTWDSSLSAGVFGGGTKLTVL
notes: as for B2

Second part, the binder before the results:

B1: PDL1-23E5 (antibody, V domains shown)
VH: QVQLVQSGAEVVKPGSSVKVSCKASGDTFSRYAISWVRQAPGQAPEWMGRIIPVLGAANYARKFQDRVTITADISTTTAFMELTSLRSEDTAVYYCARSLSGYSLGAFDVWGPGTLVTVSS
VL: QLVLTQPPSVSGAPGQSVSISCIGSNSNIGTPYDVHWYQQIPGEAPKLLIYGSTNRPSGVPDRFSGSRSGSSASLDITGLQADDEAYYYCQSYDRSLGVSDVVFGGGTKLTVL
notes: as for B2
- Average *EC50 [nM], PD-1/PD-L1 blockade bioassay [1]: 1.61 nM
- absorbance at 490 nm (M1): 2.4
- absorbance at 490 nm (M2): 2.4
- absorbance at 490 nm (M3): 0.9
- absorbance at 490 nm (M4): 0.5
- absorbance at 490 nm (M5): 2.5
- absorbance at 490 nm (M6): 2.5
- absorbance at 490 nm (M7): 2.6
- absorbance at 490 nm (M8): 2.6
- absorbance at 490 nm (WT): 2.5
- absorbance at 490 nm (ITGA6): 0.5
- absorbance at 490 nm (mouse PD-L1 protein): 2.5

B3: PDL1-11A7 (antibody, V domains shown)
VH: QVQLVQSGAEVKKPGASVKVSCKVSGYTLTELSMHWVRQAPGKGLEWMGGFDPEDGETIYAQKFQGRVTMTEDTSTDTAYMELSSLRSEDTAVYYCARDPWGGYYGMDVWGQGTTVTVSS
VL: DIQMTQSPSSVSASVGDRVTINCRASQGIRTWLAWYQQKPGKAPKLLIYAASNLQSGVPSRFSGSGSGTDFTLTIASLQPEDFATYYCQQANSFPLTFGGGTKVEIK
notes: as for B2
- Average *EC50 [nM], PD-1/PD-L1 blockade bioassay [1]: 3.25 nM
- absorbance at 490 nm (M1): 2.5
- absorbance at 490 nm (M2): 2.3
- absorbance at 490 nm (M3): 0.8
- absorbance at 490 nm (M4): 2.4
- absorbance at 490 nm (M5): 2.5
- absorbance at 490 nm (M6): 2.5
- absorbance at 490 nm (M7): 2.5
- absorbance at 490 nm (M8): 0.4
- absorbance at 490 nm (WT): 2.5
- absorbance at 490 nm (ITGA6): 0.5
- absorbance at 490 nm (mouse PD-L1 protein): 0.1
- binding result (mouse PD-L1 protein): no binding

B6: PD-L1-16E12 (WT/Lambda) (antibody, V domains shown)
VH: B7 VH with V2M, E6Q, R98K, A99P, S100R, S101D, S104N, V105L, G106V
VL: QLVLTQPPSVSGAPGQTVTISCTGSSSNIGAGYDVHWYQQLPGTAPKLLIYGNNNRPSGVPDRFSGSKSGALASLAITGLQAEDGADYHCQSYDNSLSAHAVFGTGTKVTVL
- Average *EC50 [nM], PD-1/PD-L1 blockade bioassay [1]: 0.96 nM
- IC50 (PD-L1-His): 9.11 nM

B8: PD-L1-16E12-LS-4F5 (Lambda) (antibody, V domains shown)
VH: B7 VH with V2M, E6Q, R98K, A99P, S100R, S101D, S104N, V105L, G106V
VL: QLVLTQPPSVSGAPGQRVTISCTGSSSNIGAGYDVHWYQQLPGAAPKLLIYGDINRPSGVPDRFSGSKSGISASLAITGLQAEDEADYYCQSYDSSLSGGVFGGGTKLTVL
- Average *EC50 [nM], PD-1/PD-L1 blockade bioassay [1]: 0.25 nM
- IC50 (PD-L1-His): 6.86 nM

— US20190322750A1 (Y BIOLOGICS, published 2019)
